According to a protein production outcome set (Wang et al. 2014):

Test: label from the status in PepcDB records

Sequence	protein production
MQTVGSFSEFLDDMVGRYGPRPAIQYRPRYRTLRWSYLELGTHAAKLASLLDEHGVGSGDRVFLSAENSPHWVAAFFAIAARGAVIVPLNPRSPPEQLANLVRSAGPSLVLASPRRRWEGPPLPVVDIERSGRVPSNRPATRTGPARLAEIIYTSGTTGDPKGVMLTHANLLSDLSAVARAIPLAPDDHVLSLVPLFHVYGQMTSLFCPLAAGCPVSYLTTPTTRSVLEALTHTPVTHLVAVPEVLKTMMDRLESRIGRIPGFLWPLLRGRIRARISGSLRTIVCGGAPLDPVVEEKWWALGFQVLQGYGLTETSPVIAANTPQAHRIGSVGKPLDEVELRIASDGEILVKGPMVMAGYFRDPARTEAAFADGWLKTGDAGRLDADGFLYVYGRKRYMILGPGGENVFPEDIEAVLNRTAGVTDCAVVGLESGGRTLVHAVLLADADEARAAAIVAEANRHLAPHQRIVSWSLWPEPDFPRSVTRKVKKDEVLGRLRREPSTQAVPVGRSTPLRLLLAQVAGTEAGALSDDTRLVPDLGLDSLLRIELVARIEEDLGVCLDEIDIGPLTTVADLENLLVRRQDRMPRVDAHPRWSLSPWASRLRPLAQKVFLQWWIAPFCRLRVSGLEHLAALDGPVIFMANHRSYLDSAVASFALPDRFRYRLAIAAATGVLYTRYRWAVPIGELSLNAFPLPSGPDENIRPGLELIGRLLDDGWNVLIFPEGQMNRGGLGIQPLRRGAGTIGVDMGVPVVPLVIEGTEKVMPPGRIVPRAAAPVSVRFGAPLRAGEAEPHGRMLARIEDALRRLLENSPLEHHHHHH	failed
MNQSLSPQQSPGFLFIAVSMITCLILLINVSFKIILLGGLVFAINSLICPLIAALFLFALRNCTFKEQRHLLNICLMTLYMFCIGVYVLVNLPAAEYMHDNPAYQVIFEEIPKKFFATTIAFALSFYLPHLLFCTKNDRVLSTPKQCVLLALLGGVSFFCLDFYLLFSAPHAHSFKQIFIDSFMISSLLLLIIGVVYLTFLLNDKQHKGKALIETTELTLFPIYQYLICFAVTVMLVCLACEYRIIAINKDLVLSASCIFFPITIIISSIVGELWGYQANLKLALALLAAQFIFDMLLMGSVALPSPPFFNLNPFYHYIMPRRLSAASLSLFVTFLGNAMLLHYLKYSKWKINRSLRILIANISVNSLLCLVDYSLLYGGIYPYEQIINLAVSVWQYKLLTALIALPVILWMCKILERNYSLVVQTERN	failed
AIAAADISESSGADCKGDPRNSAKLDADYPLRVLYCGVCSLPTEYCEYMPDVAKCRQWLEKNFPNEFAKLTVENSPKQEAGISEGQGTAGEEEEKKKQKRGGRGQIKQKKKTVPQKVTIAKIPRAKKKYVTRVCGLATFEIDLKEAQRFFAQKFSCGASVTGEDEIIIQGDFTDDIIDVIQEKWPEVDDDSIEDLGEVKK	failed
MAPKAGKKPAEKKPAEKAPAEEEKVAEKAPAEKKPKAGKKLPKEAVTGGVEKKKKRVKKSTETYKIYIFKVLKQVHPDIGISSKAMGIMNSFINDIFEKLAQEASKLARYNKKPTITSREIQTAVRLVLPGELAKHAVSEGTKAVTKFTSS	failed
MEEVIWEQYTVTLQKDSKRGFGIAVSGGRDNPHFENGETSIVISDVLPGGPADGLLQENDRVVMVNGTPMEDVLHSFAVQQLRKSGKIAAIVVKRPRKVQVAPL	not failed
MNPLDLIAKRAYPYETEKRDKTYLALNENPFPFPEDLVDEVFRRLNSDALRIYYDSPDEELIEKILSYLDTDFLSKNNVSVGNGADEIIYVMMLMFDRSVFFPPTYSCYRIFAKAVGAKFLEVPLTKDLRIPEVNVGEGDVVFIPNPNNPTGHVFEREEIERILKTGAFVALDEAYYEFHGESYVDFLKKYENLAVIRTFSKAFSLAAQRVGYVVASEKFIDAYNRVRLPFNVSYVSQMFAKVALDHREIFEERTKFIVEERERMKSALREMGYRITDSRGNFVFVFMEKEEKERLLEHLRTKNVAVRSFREGVRITIGKREENDMILRELEVFK	not failed
MMRRFKFVVQNITAKIVYTRICMGTIQKIRTDVNVLHAAIHRIEWLFETFSSVCLSFSGGKDSTVLLHLTADVARRKKRRFSVLFIDWEAQYQCTIAHILKMREMYRDVTETFYWVALPLTTVNGVSQFQPEWICWEPGVEWVRQPPDDAITDMSYFPFYRYAMTFEEFVPAFSSWFAGNRCGVAILTGVRADESLNRFMGLVSQRKLRYADDKPWTTASPEGFYYTLYPLYDWKARDIWIYNARTRAIYNPLYDLMYRAGVPLRNMRVCEPFGPEQRKGLWLYHVLEPETWARMCERVSGAASGALYANESGAYFALRKRITKPPHHTWRSYAMFLLDVMPERTAEHYRNKIAVYLRWYQTRGFPDDIPDEQENDLGSRDIPSWRRICKTLIKNDFWCRTLSFSPNKPRHYERYLQRMKERRKEWGIL	failed
MAKPVYHAITKYSPKKPVIVFVPSRKQTRLTAIDILTTCAADIQRQRFLHCTEKDLIPYLEKLSDSTLKETLLNGVGYLHEGLSPMERRLVEQLFSSGAIQVVVASRSLCWGMNVAAHLVIIMDTQYYNGKIHAYVDYPIYDVLQMVGHANRPLQDDEGRCVIMCQGSKKDFFKKFLYEPLPVESHLDHCMHDHFNAEIVTKTIENKQDAVDYLTWTFLYRRMTQNPNYYNLQGISHRHLSDHLSELVEQTLSDLEQSKCISIEDEMDVAPLNLGMIAAYYYINYTTIELFSMSLNAKTKVRGLIEIISNAAEYENIPIRHHEDNLLRQLAQKVPHKLNNPKFNDPHVKTNLLLQAHLSRMQLSAELQSDTEEILSKAIRLIQACVDVLSSNGWLSPALAAMELAQMVTQAMWSKDSYLKQLPHFTSEHIKRCTDKGVESVFDIMEMEDEERNALLQLTDSQIADVARFCNRYPNIELSYEVVDKDSIRSGGPVVVLVQLEREEEVTGPVIAPLFPQKREEGWWVVIGDAKSNSLISIKRLTLQQKAKVKLDFVAPATGAHNYTLYFMSDAYMGCDQEYKFSVDVKEAETDSDSD	failed
MFFNFLIPPNSFSSFPEYVAFVVSLSYALNATLLLLYSRIFGVEVKEKAFIPVTLSFVAIDFTSIQGLRLFVGIPAYLGVVILTSLCILEGLALALTSSLALVNASRRHLAATWIAANVASSGLFMAFVGVS	failed
MNNTIPRWRGFNLLEAFSIKSTGNFKEEDFLWMAQWDFNFVRIPMCHLLWSDRGNPFIIREDFFEKIDRVIFWGEKYGIHICISLHRAPGYSVNKEVEEKTNLWKDETAQEAFIHHWSFIARRYKGISSTHLSFNLINEPPFPDPQIMSVEDHNSLIKRTITEIRKIDPERLIIIDGLGYGNIPVDDLTIENTVQSCRGYIPFSVTHYKAEWVDSKDFPVPEWPNGWHFGEYWNREKLLEHYLTWIKLRQKGIEVFCGEMGAYNKTPHDVVLKWLEDLLEIFKTLNIGFALWNFRGPFGILDSERKDVEYEEWYGHKLDRKMLELLRKY	not failed
ISLAVLAVSIIFLGVTVIQNKKKIDPALKELSSVTQAMQKQIEGLKTETELLTQKQKKIQQDVQIKKYTLQQTAAEVKEVPQAVKEVWQA	not failed
MTLKAGIVGIGMIGSDHLRRLANTVSGVEVVAVCDIVAGRAQAALDKYAIEAKDYNDYHDLINDKDVEVVIITASNEAHADVAVAALNANKYVFCEKPLAVTAADCQRVIEAEQKNGKRMVQIGFMRRYDKGYVQLKNIIDSGEIGQPLMVHGRHYNASTVPEYKTPQAIYETLIHEIDVMHWLLNEDYKTVKVYFPRQSSLVTTLRDPQLVVMETTSGINIVVEVFVNCQYGYDIHCDVTGEKGMAELPTVASAAVRKAAKYSTDILVDWKQRFIDAYDIEFQDFFDRLNAGLPPAGPTSWDGYLAAVTADACVKSQETGNTEIVELPSKPDFYK	not failed
MRRNRVDVITLGCSKNLVDSEVLMRQFLSNGYTVHHDPASVCGEIVVVNTCGFIGDAQEESVNTILEMVEAKKAGRIGSLYVMGCLSERFREDLKKEIPEVDAYYGKFDWKQLISHLGKSYYAEAENRRKLTTPRHYAYLKISEGCDRSCSYCAIPIITGRHRSRPMEDLVEEVRMLVKHGTREFQLIAQDLTFYGLDLYGANRLAELTARLSDIKGVEWLRLHYAYPAQFPLDLLPVMRERPNVCKYLDMALQHISDPMLGRMRRRITKAETYELIERIRTEVPGIHLRTTLMTGHPGETERDFEELLQFVRDIRFERLGAFTYSHESGTYCDKNYQDDIPESVKQERLGELMAVQERISAAHNEAKIGSRLHVVIDRAEDGFYVGRTEYDSPEVDPEVLIPFVSGQELNPGRFYMAEVTGAEPFDLYARIVDLEHHHHHH	failed
MARPHFALTSVFLASSVSLSAFGFSLPARAQSEDVAQKCQQPIKSVEASFAACTAAIDTGALSGKALAGAYIKRGFLRTRQRDLVGAEADLDAAIKANPDAADAYTTRANFWNVSGKPERALADADQAIKLDPNLPLAHFVRGSAELKLGHDDRAIADYSRAIELRPKESGEVYAVRGFAYHRKGDDIRAVADYTEALKAAPEDVGTLLNRGDARRNLRDTAGAAADYSEAIKLAPGNAGGFKGRGFIRLLTQDTGGAVADFTEAIRLSPSESGLYLNRASALGLQNQSLLALADEDMAIRLEPQHPLAYVNRAETLKLLGDKVAARASVTKALQLAPGFPPAVEVLKKLGEPKRSKEPSSEAAQEAYRRCTFPVTDLGPGEEGIKQIIKVCTLLVTAQGGSDANRALVHLQRGSMYRRQGDYQHALIDFSESLRYDPESALAYTGRGNAYRGLKLLDQALADHTEAIRLDPKYATAYNNRGNVWRDKNDLAKAIADFDRAIAISPNYAMAYFNRGNSRLESGDKEGAVADFQQTVKLSPQFKEAAERLQELGVRM	failed
MEIKAMFRDVSLSSRNFSEMLSRESKVVAALAAKSPLMAHANWRLKGNSLEEATLYPAFDADGSPSTPALAVLNEEQRGKKHSASHAAIWNGNTRPNEGASMSCHVSDEKVLPDRFSTRLGVPDCYAKSQDLADVVTTIVAAFNPLVVEASPEGYFDKQVFDDKPGVGWMLYLPKVITQQQVPEARALIPVSAKGKQTGTIIVSVTDAPFSVDNPEHVAIANRIEIRLVDQDLLPAYVDI	not failed
MNPPDISVLIVSFNTRDLLRRCLASLRDQAGGTGIETIVVDNASRDGSADMVEAEFPDVRLIRSPVNLGFGNANNLAFTQSRGRYLVLLNSDACLAPGLLDAASKRMDACPDVGMAGGRLVGPEGGWQPSARMFPSLLNEFLVLSGLAHRYPKSRLFGRFDRTWADPSEEAGVDWVPGAFAILRRDLIDRIGFFDPRFFLYYEEVDLCRRIRAAGCKIMYWPELVITHLGGESAKTLSDMEFSSHASQLTLWRMRSQALYYRKWHGLALAWSAKTLEQLWHWLRALRHRRSAPAKAHDSEALIRLWNRAWKETEGGRVSPPQPWLEHHHHHH	failed
MAFNHLPAGVHDALGPLSVMPVTHSLPMAKNHRPDRSSSDTASSPSPGTVLDRLASGPSRASRITHTEHLPPREGRHAVWPDRIRSEVIAAVQAAGIEHPWAHQARAAEHALDGESVVVATGTASGKSLAYLVPALSALLDGSEAPNGRGATALYLAPTKALAADQCRSVKELSQPLGTAVRPAVYDGDTPVEEREWVRQYANYVLTNPDMLHRGILPAHPRWSSFLRALRYVVIDECHTYRGVFGSHVAQVLRRLRRLCARYGASPVFLLASATAAEPSVAASRLTGLRVVEVADDASPRGELVFALWEPPLTELHGEKGAPVRRTATAETADLLTDLTLQGVRSVAFVRSRRGAELIAVIAQERLAEIDRSLARRVAAYRGGYLPEERRALERALHSGELLGLAATTALELGVDVSGLDAVVIAGYPGTRASLWQQAGRAGRSGQGALAILVARDDPLDTFLVHHPEALFDQPVESTVLDPDNPYVLAPHLCAAAEELPLVEEDLALFGPSTADLLPQLEAAKLLRRRTKAWHWTRRERAADLTDIRGEGGRPVQIVEAGTGRLLGTVDAGAAHTTVHEGAVHLHQGRTYLVRELDLEDSVALVEEANPSYSTVARDTTAISVLETDVEVPWGEGRLCYGSVEVTNQVVSFLRRRLITGEVLGETKLDLPPRTLRTRAVWWTVTEDQLDAARITPEILGGALHAAEHASIGMLPLFATCDRWDIGGVSVPLHPDTLLPTVFVYDGHPGGAGFAERAFHTARDWLTATRQAIASCECDAGCPSCIQSPKCGNGNDPLHKRGAVRLLSVLLRGAAEQEKAGLPKEPARAAESSAD	failed
